Experiments:
human TrkB = biological target: T1, human TrkB (Homo sapiens, UniProt Q16620); assay: Receptor tyrosine phosphorylation (KIRA) in TrkB expressing cell line; type: cell-based
T1 construct: expressed in transfected cells

db/db female mice = assay: Survival time in db/db mice (Example 12); type: in vivo
Procedure: Db/db female mice maintained as described in Example 1 were divided into two groups. Group 1 (8 mice) were administered with vehicle (PBS). Group 2 (6 mice) was each administered with NT-4/5 at the doses of 20 mg/kg. Both the vehicle and NT-4/5 were administered subcutaneously once daily from day 1 to day 26, and were then followed up for survival. Mortality is defined by the body wasting below 60% of the starting body weight (i.e., from about 40 g down to about 24 g) or natural death, whichever happened first.

db/db mice [1] = assay: Long term glucose control in db/db mice (Example 14); type: in vivo
Procedure: Db/db mice maintained as described in Example 1 were divided into five groups (groups 1-5). Group 1 were administered with vehicle (PBS). Group 2, group 3, group 4, group 5 were each administered with NT-4/5 at the doses of 2 mg/kg, 5 mg/kg, 10 mg/kg, and 20 mg/kg, respectively. Both the vehicle and NT-4/5 were administered to each group of the mice subcutaneously once daily from day 1 to day 26. One day before beginning the treatment (day 0), blood samples were collected from the mice as described previously for the determination of baseline levels of serum biomarkers (glucose and insulin). On day 45, HbA1c level was measured. Glucose tolerance test was performed on day 54 (28 days after the last dose of NT-4/5 treatment). Intraperitoneal (IP) glucose tolerance test was conducted by fasting the mice overnight (16 hours) before giving them an IP injection of a load of 2 grams of glucose/kg of body weight. Serum glucose and insulin were also measured.

db/db mice [2] = assay: Co-administration of Mab 1241 with NT4/5 in db/db mice (Example 15); type: in vivo; details: NT4/5 2 mg/kg s.c. daily day 1-5; Mab 1241 5 mg/kg i.p. single on day 1
Excerpt: Test animals: 32 Leptin receptor mutant db/db mice (BSK.Cg-m+/+Leprdb) obtained from Jackson Laboratory were used for the study. The mice were divided into four groups of 8 animals each (groups 1-4), with homogeneous initial body weight and glycemia values based on a randomization table. The mice were housed one per cage.
Anti-NT4/5 and NT4/5: Both anti-NT4/5 monoclonal antibody Mab 1241 and human NT4/5 were obtained from Genentech. […] (data not shown).
Administration of Mab 1241 and NT4/5: On day one, mice in groups 1-4 were treated with vehicle (PBS) subcutanouesly (s.c.), 5 mg/kg Mab 1241 intraperitioneally (i.p.), 5 mg/kg Mab 1241 intraperitioneally (i.p.) plus 2 mg/kg NT4/5 subcutanouesly (s.c.), and 2 mg/kg NT4/5 subcutanouesly (s.c.), respectively. On day 2 through day 5, group 1 was treated with a daily dose of vehicle (PBS) subcutanouesly (s.c.). Groups 3 and 4 were treated with a daily dose of 2 mg/kg NT4/5 subcutanouesly (s.c.).
Baseline non-fasted blood glucose level was measured by One-Touch Ultra glucose meter from the tail bleed.

T1 sequence (Q16620 32-822): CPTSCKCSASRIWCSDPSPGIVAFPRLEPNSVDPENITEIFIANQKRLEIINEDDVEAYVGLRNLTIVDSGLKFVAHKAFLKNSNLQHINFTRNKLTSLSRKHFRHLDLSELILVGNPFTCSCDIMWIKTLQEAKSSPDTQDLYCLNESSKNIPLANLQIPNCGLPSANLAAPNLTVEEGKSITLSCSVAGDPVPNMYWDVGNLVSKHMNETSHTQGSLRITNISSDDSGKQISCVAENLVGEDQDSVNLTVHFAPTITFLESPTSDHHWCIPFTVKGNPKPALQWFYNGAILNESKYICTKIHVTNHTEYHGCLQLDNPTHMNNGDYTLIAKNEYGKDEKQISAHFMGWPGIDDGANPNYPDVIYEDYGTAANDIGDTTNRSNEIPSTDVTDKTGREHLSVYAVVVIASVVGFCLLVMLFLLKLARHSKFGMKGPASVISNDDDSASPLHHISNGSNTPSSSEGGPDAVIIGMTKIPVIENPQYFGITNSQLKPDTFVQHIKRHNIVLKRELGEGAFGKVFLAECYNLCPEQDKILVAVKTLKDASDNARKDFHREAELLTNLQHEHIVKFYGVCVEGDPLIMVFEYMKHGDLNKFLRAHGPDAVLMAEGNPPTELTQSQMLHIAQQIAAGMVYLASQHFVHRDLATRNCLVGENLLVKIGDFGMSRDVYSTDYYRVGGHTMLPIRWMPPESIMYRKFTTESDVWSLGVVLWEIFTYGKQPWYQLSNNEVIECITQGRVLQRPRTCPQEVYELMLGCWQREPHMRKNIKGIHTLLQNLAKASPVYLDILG

B1: NT-4/5: mature human neurotrophin-4/5 (SEQ ID NO:1), obtained from Genentech or produced in E. coli (protein, listed as Homo sapiens)
chain: GVSETAPASRRGELAVCDAVSGWVTDRRTAVDLRGREVEVLGEVPAAGGSPLRQYFFETRCKADNAEEGGPGAGGGGCRGVDRRHWVSECKAKQSYVRALTADAQGRVGWRWIRIDTACVCTLLSRTGRA
receptor tyrosine phosphorylation of TrkB-expressing cell line (human TrkB): increased receptor tyrosine phosphorylation
median length of survival (db/db female mice; 20 mg/kg s.c. daily day 1 to 26, n=6): 257 days
difference in median survival versus vehicle control (db/db female mice; vehicle 192.5 days, not statistically significant (P=0.1331)): 65 days
serum insulin levels (db/db mice [1]; 10 mg/kg/d, day 6, P<0.05): significant reduction
serum insulin levels (db/db mice [1]; 20 mg/kg/d, day 6 and day 14, P<0.05): significant reduction
non-fasting serum glucose level reduction (db/db mice [1]; all treatment groups, remained low until day 29): more than 50%
HbA1c levels versus vehicle (db/db mice [1]; day 45 (15 days post-dose), 2, 5, 10 and 20 mg/kg s.c. daily day 1 to 26): significantly lower than the vehicle group
glucose tolerance (db/db mice [1]; day 54, 28 days after the last dose): significantly improved glucose tolerance
body weight (db/db mice [2]): small, but statistically insignificant reduction in body weight
food intake (db/db mice [2]): significantly reduced food intake on day 8 and day 10
non-fasted glucose level (db/db mice [2]): reduced non-fasted glucose level only on day 9, but not on day 4

Source: patent publication US20090203610A1, “METHODS OF TREATING OBESITY OR DIABETES USING NT-4/5” (RINAT NEUROSCIENCE CORPORATION, priority 2004, published 2009)
